Assay results as given in patent publication US20220033515A1.

Tests used:
[1] = biological target: hVEGF165 (human) (UniProt P15692); test: competition ELISA of hIgG, hVEGF165; axis 'Conc (nM)'
[2] = biological target: human vascular endothelial growth factor (hVEGF) (human) (UniProt P15692); test: blocking ELISA: biotin-VEGF with hIgG, capture on Avastin
human vascular endothelial growth factor (hVEGF) (human), sequence (P15692 other isoform, or with tags, fused parts or gaps limits assumed): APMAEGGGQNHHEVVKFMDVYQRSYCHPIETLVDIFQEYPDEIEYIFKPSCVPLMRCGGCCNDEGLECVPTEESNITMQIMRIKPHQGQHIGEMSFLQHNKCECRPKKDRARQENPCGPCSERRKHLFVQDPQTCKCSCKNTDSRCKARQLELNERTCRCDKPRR

hVEGF165 (human), sequence (P15692 other isoform, or with tags, fused parts or gaps limits assumed): as above

Substance: G6 hIgG (antibody)
- IC50 (read off the curve) [1]: 3 nM
- IC50 (read off the curve) [2]: 3 nM
